The values below are quoted from earlier work in PMC10173724.

The target of this data set is FABP3 (Homo sapiens) (UniProt P05413).

What is called Kd is a measure of binding affinity in units of concentration. Turning to “alpha-synuclein C-terminal peptide Y133F/Y136F 130-140 (from UniProt P37840)”, the Kd was 2.1 nM.
